{"source": "the DeepSol protein solubility set"}
{"assay": "soluble on expression in E. coli; label from the status in PepcDB or PDB records"}
{"sequence": "MGSDKIHHHHHHMCNYNQLFENIAELVMHHSPSGAEAEINQLLLQKFAALGVEVWSDRADNIIAKIPGKNSERAVAITAHKDEIGAIVKNIGDAGKVEVRKLGGAYPWVYGEGVVDLLGDNETISGILSFGSRHVSHESPQKVQQEDTAVKWENAWIETKRTTEELEIAGIRPGTRMVIGKHRKHPVKLQDHIASYTLDNKASVAILLALAQQLKQPAMDVYLVASAKEEVGAIGALFFTQNQQLDALIALEICPLSEEYPVKDSENPVLLIQDAYGIYDEGLNGELRQCAKQLNMPVQLTTLSGFGSDASIAMKFGHVGRAACLAFPTQNTHGYEIAHLGAISNCINLLKAFCETEF", "soluble on expression in E. coli": "not soluble"}
{"sequence": "MFLYTETDQNLQACIDACNHCYRTCLRMAMNHCLEAGGKHVEADHLRLMMNCAEICQTSLNFMLSGSRFSPKVCGVCAEICDACAKSCEQLDGMEECVQTCRQCAEHCRKMAALEHHHHHH", "soluble on expression in E. coli": "soluble"}
{"sequence": "MSGSVPFIRRLAVIGVGLIGGSLARALRTAGAVGEIIGIDRDEANLRQAAELGVVDRAAATVAEGVAGADMVFLSVPVRAMAGVVREIAPHLAAGCIVTDGGSVKAEVVAACDPLMPAGTCFVGGHPIAGTEHSGVGASFATLYQGKRCILTPAATTDRDALATVARMWEAAGSEVVLMDPEKHDRVVAAISHLPHMVAYALVNAVEGYDRFEESILRYSAGGFRDFTRIASSDPAMWRDIALMNREGVLEMMDHFAAYFGQLRSLVAAGDAEGLERFFRDSKESRDAILLEHHHHHH", "soluble on expression in E. coli": "soluble"}
{"sequence": "MIGVTSCISGDGKSFCSHNLARIYAISGKKTLLIRGDMRKAFNAPANLIPQGSMGLSQHLIGMATIDQIIHKGEIENLYQIIPGPVPPNASELVASQKMEEFIRIMKDKFEVVIMDSPPVGLVSDYMSVIKHIDANLYIVRYDYTPKETLEAIKDLKNKYPAQSHSIIFN", "soluble on expression in E. coli": "not soluble"}
{"sequence": "MSLENKIIFVAGACGRIGKALCEKILLSKGIPILADINKECLNKLQENLETNFKTKLLSLELDITKQESLQTALQKSQERYGKIDAFVNSSYPFGKDWGKTPYYELKYEQICESLNLHLAGFMLAAQEFVKFFKQQGYGNIINLSSIMGVYAPKFENYEGTSMQSSLEYSVIKAGINHMSSWLAKELFNQNIRVNTLASGGILDNQNELFLKAYRKCCASKGMLDADDICGTLVFLLSDESKFITGQTLVVDDGWGLEGHHHHHH", "soluble on expression in E. coli": "soluble"}
{"sequence": "MSLKKDTSEQSVEQSEVGLSLEELIRRGARDLIERAIEVEVQQLLAEYENVRMLGGSRAVVRNGYLPAREVLTAVGNVEVRVPKVRDRSGAGVKFNSALVPPYVRRSARVSAALPWLYLKGISTGDMREALTVLLGDEAKGLSPNVVSRLKTEWASDYAGWMKRDLSGSRYVYWWADGVHTSLRGEDDARQCLLVVIGVRLDGTKELVTVGDGHRESKASWLELLRDLKARGLEVGPRLAVGDGALGFWGALDELYPETRRQRCWVHKSANVLNALNALPKSLQAKAKAQLHEIWMAPTRAAAVSAFERFVECYQAKYPKAADKLVRDRDALLAFYDFPAEHWIHLRTTNPIESTFATVRHRTTRTKNCVSRSSFLGLAFKLVQEAEKSWRRIRGVERIAELMGGVVFKDGEPVKDEGHHHHHH", "soluble on expression in E. coli": "soluble"}
{"sequence": "METKEAIIHVIVATAEWGKDQLRYRRHRLAEFLAAQEETKEVIWVCPAPRAQGKEFQEVHSGIRQFAVKDLLQKKMFRFGRYTDVFYRHKLSPLLDELTPASANGERCCLWYTFPGFPLLSSLYSWDQVIYDCSDLWAAPISGRSNLLSEFRRKVIKSAELRIIQRADSITCSSDYLHKEVDKKLTAGREKVHTVENGVEYELFSANKQAPDRSILQGREGIVLGFIGGIKPKLDFKMIKEAALQKPDWTFLWVGPDATNGDVSFQELLRLPNVIWTGPADPKEVPHYMELIDIGIMPYKQSPYNQAVFPLKLFEFLAAGKPVVGTNLPSTSKMQKPYVYEYVEGDHPIDFIAACEKVLGQNGDETYKEMRRNIARTQDWNCLFRQIMKYTGIQKHAMAGDPLEHHHHHH", "soluble on expression in E. coli": "not soluble"}
{"sequence": "MGSDKIHHHHHHMNYPQEKIKPYSNDGKKSEQVEQMFDNIAPAYDQLNHTLSLGIDRSWRRKAINWLKPFRPQQIMDVATGTGDFAILACHELQPEQLIGTDISEGMMNVGREKVKKEGLSEKISFAREDCTSLSFADNRFDAITVAFGIRNFEDLDKGLSEMYRVLKTGGHLVILELTTPDRFPMKQMFTIYSKIVIPTLGKLLSKDNSAYSYLPQTIKAFPQGEVMKNVISRVGFSQVQFRRLTFGICTLYTATK", "soluble on expression in E. coli": "not soluble"}
{"sequence": "MNKQIDLPIADVQGSLDTRHIAIDRVGIKAIRHPVVVADKGGGSQHTVAQFNMYVNLPHNFKGTHMSRFVEILNSHEREISVESFEEILRSMVSRLESDSGHIEMAFPYFINKSAPVSGVKSLLDYEVTFIGEIKHGNQYSFTMKVIVPVTSLCPCSKKISDYGAHNQRSHVTISVRTNSFIWIEDIIRIAEEQASCELYGLLKRPDEKYVTERAYNNPKFVEDIVRDVAEVLNHDDRIDAYIVESENFESIHNHSAYALIERDKRIR", "soluble on expression in E. coli": "soluble"}
{"sequence": "MPTNTFFHLPEEKQQRLLDAAQIEFSRHSLQEASIANIVKLAGIPRGSFYQYFENKEDLYFYYFATLRKNSERDLEKQIIAENGDLIEAMDVYFSKMIVEVLTGENASFYRNLFVNMDYRASRRVTDNLATGEEEKNRKQHCHKHRGRKGHAAYAEHLYQIIDHSKLTIETPKEFTWFMQTAMHAVFSTIVDGYRQQRENTAYDSTEAVKQLKMKLSWLKNGAYK", "soluble on expression in E. coli": "not soluble"}
{"sequence": "MAPHPEAAALLARSHRLGADPRNTNYAGGNASAKGTATDPVTGGDVELMWVKGSGGDLGTLTEAGLAVLRLDRLHALKGVYPGVEREDEMVAAFDYCLHGKGGAAPSIDTAMHGLVDAAHVDHLHPDSGIALACAADGEKLTAECFGDSVAWVPWRRPGFQLGLDIAAVKEANPQTIGCVLGGHGITAWGATAEECERNSLHIIRTAEAFLAERGKAEPFGPVIEGYAALEHHHHHH", "soluble on expression in E. coli": "not soluble"}
{"sequence": "AIAEVLRPPLININGRIYRKNPVQEETYEEEEEDCSYSEAAVDQCLDEPCDAHNIEQTDRGFRCALDVPSVLYKYIIGKKGETRRRLESETKTSINIPKQGVEGQIVVTGAHRPSVSSAVTRIEVLIDSFRRKQPFTHFLSFALNHAQVREGFLRFREEVLEHCSQDSGVDVSIFQNPDKLHLTIGTLVLLNQQEVTRANELLHQCQDTIREITGAEALPVEVRGVEYMNDDPSMVDVLYAKVSVQDGSDRLQQISDRLVECFVSAGLMERERDRVKIHATVMNTLFRRDPSAEDRGAPARANPRDREAFNGKNILQMFGDFYFGAFELNSVQISQRFSTDSSGYYSSAGHITFS", "soluble on expression in E. coli": "soluble"}
{"sequence": "MKIISEGETKLMVPEESTLSKKDTVFYNPVMETNRDISVSVVQSFLDDFKRDEFLMCDPLGGSGARGIRYAKELKFNGDLKVSIGDINPSAVKMIKENLKLNELENVEVFHEDANVLLSKNFKVFNVVDLDPFGSPVPYLDSGIRASLTKGGLLCMTATDTAVLCGAYRKTCIRKYNAVPLKGDKELAVRLMIGYAVKMASKYDIGLKPIFSHVTDHYARTFMVTERGAGKADSAIENLGYIRQDSEQKSFKTFEEGSEKGYAGPFYLGEISDKNIVQNALNTAKTRNYSKRAVNILEMISRESEINQVGCFDIHELCSFIKKLVPPVNDIMENLKENGFKVTRVHYNPYGLKTDAELSDLVVLISEYHSKKYLEHHHHHH", "soluble on expression in E. coli": "not soluble"}
{"sequence": "MGSDKIHHHHHHMSSSQQIAKNARKAGNILKTISNEGRSDILYKIHDALKANAHAIEEANKIDLAVAKETGLADSLLKRLDLFKGDKFEVMLQGIKDVAELEDPVGKVKMARELDDGLTLYQVTAPVGVLLVIFESRPEVIANITALSIKSGNAAILKGGKESVNTFREMAKIVNDTIAQFQSETGVPVGSVQLIETRQDVSDLLDQDEYIDLVVPRGSNALVRKIKDTTKIPVLGHADGICSIYLDEDADLIKAKRISLDAKTNYPAGCNAMETLLINPKFSKWWEVLENLTLEGGVTIHATKDLKTAYFDKLNELGKLTEAIQCKTVDADEEQDFDKEFLSLDLAAKFVTSTESAIQHINTHSSRHTDAIVTENKANAEKFMKGVDSSGVYWNASTRFADGFRYGFGAEVGISTSKIHARGPVGLDGLVSYQYQIRGDGQVASDYLGAGGNKAFVHKDLDIKTVTL", "soluble on expression in E. coli": "soluble"}
{"sequence": "MIHRPTAKENAKRFASVIQALHACETACAYCATECGKNGHAEAMGRCVSLCTDCARFCALARDFLERNSEFAELLLEDCAEICQQTMEECVHHAEGHCRKCAEACEQCKKACLEVAGAAPLSSAQQKELLAALLEHHHHHH", "soluble on expression in E. coli": "not soluble"}
{"sequence": "MGSSHHHHHHSSGLVPRGSHMSVRSLPAALRACARLQPHDPAFTFMDYEQDWDGVAITLTWSQLYRRTLNVAQELSRCGSTGDRVVISAPQGLEYVVAFLGALQAGRIAVPLSVPQGGVTDERSDSVLSDSSPVAILTTSSAVDDVVQHVARRPGESPPSIIEVDLLDLDAPNGYTFKEDEYPSTAYLQYTSGSTRTPAGVVMSHQNVRVNFEQLMSGYFADTDGIPPPNSALVSWLPFYHDMGLVIGICAPILGGYPAVLTSPVSFLQRPARWMHLMASDFHAFSAAPNFAFELAARRTTDDDMAGRDLGNILTILSGSERVQAATIKRFADRFARFNLQERVIRPSYGLAEATVYVATSKPGQPPETVDFDTESLSAGHAKPCAGGGATSLISYMLPRSPIVRIVDSDTCIECPDGTVGEIWVHGDNVANGYWQKPDESERTFGGKIVTPSPGTPEGPWLRTGDSGFVTDGKMFIIGR", "soluble on expression in E. coli": "soluble"}
{"sequence": "MELLPQGQRNNTQVTFEDQQKINEFSKLIMRKDAIAQELSLQREEKEYLDDVSLEIELIDEDEPVQYKVGDLFIFMKQSKVTAQLEKDAERLDNKIETLEDKQRDIDSRLDALKAILYAKFGDNINLER", "soluble on expression in E. coli": "not soluble"}
{"sequence": "MKNIKKNQVMNLGPNSKLLKEYKSQLIELNIEQFEAGIGLILGDAYIRSRDEGKTYCMQFEWKNKAYMDHVCLLYDQWVLSPPHKKERVNHLGNLVITWGAQTFKHQAFNKLANLFIVNNKKTIPNNLVENYLTPMSLAYWFMDDGGKWDYNKNSTNKSIVLNTQSFTFEEVEYLVKGLRNKFQLNCYVKINKNKPIIYIDSMSYLIFYNLIKPYLIPQMMYKLPNTISSETFLK", "soluble on expression in E. coli": "soluble"}
{"sequence": "MAHHHHHHMLRRVSLSALVQRVAAGAVIATAGRTIVVFSQQHHILESNQRARNSPSNVWIEDWEADRLGMKPEPGALPTQLVLDKQLELFNFDQLLSPPEVMEAPKHSSYSSRKVYGERLQFELNDRAQRHSYQSKWWITRGQAYKENLQFKANARSSILLTKSQIKLFHSSQLSGGEALQQYPVSGGSRRVYSKKGEAFQLLQDHIKSNDFNSGLYFTRRQMEFFKLAPLPDQVPVVQEAATGDRHLIYNVDQLEDPHLALKTLQRAPVNVPTFLLSGEPIMSENTRKFPKTFRSNYWLTGRDAELYQWPIKESERRRGVPFSTGTSAPVQYELFNVEQLSNPDEAFARAGLLIQ", "soluble on expression in E. coli": "soluble"}
{"sequence": "YHPVFSAKIEQRLIERFGVKRALVALDQPNEEAQRLQVSGLVSNYLTSTLKNGMVVTVGQGRNVSSVAHHIGVITPRDCKFVCGIGGIHPRGGMYNADHICRQLAKKYGGTSETLYAPAYAENREQKMAFMQNATVKQTLDLARKADVALVGIGDMSENSYMVDLGWFTPDEVVQSRLKQGVVGDFAGYDFFDIHGNVANTVMSDRVIGLGIEEFRPIAEVIAIAAENSKPLALLGALRTGAIDVIATSVSNALTVLNLDEQMHGNAASES", "soluble on expression in E. coli": "not soluble"}
{"sequence": "MSLKISEVATPNFLLDLDQLEKNIDKIQQICTNNNKQLWPMLKTHKSTYIARLQKNAGASGFLVGTLDEGEALIKAGFEDIMLAYPYMGEVNINRIVTMASKINLICATDNIECAKAYSEAFSKSKIECKLLIIVDCGLHRFGVEPEKVVELATEISKLENIKIVGISSHPGQVYGCSSPEGVPDVCVQEDSSMEKAYKALTDNGFNIEIVASGSTPTVESEAACKTITAVRPGNYVYYDAIQIGLGCATEDMCALTVVCTVISKNSSGYYLIDCGSKCLGLDKGAHGNSSIVGYGRVCGHPELTIDSLSEEVGKIKVNGETDIKIGDRIRIIPNHSCSTANLTSNLLGFRGDTIEKVIEVDIRENSEGHHHHHH", "soluble on expression in E. coli": "soluble"}
